Data taken from patent US7026283.

Experiments:
[1] = molecular target: rat FcεRI (high affinity IgE receptor) on RBL-2H3 cells (rat) (UniProt P12371); assay: FACS on RBL-2H3 cells; FITC-conjugated IgE at a subsaturating concentration, no preincubation; conditions: scale: mCi
[2] = molecular target: rat FcεRI (high affinity IgE receptor) on RBL-2H3 cells (rat) (UniProt P12371); assay: FACS on RBL-2H3 cells; FITC-conjugated IgE after preincubation with saturating unconjugated 3A9 (competitor); conditions: scale: mCi
[3] = molecular target: rat FcεRI (high affinity IgE receptor) on RBL-2H3 cells (rat) (UniProt P12371); assay: FACS on RBL-2H3 cells; FITC-conjugated IgE after preincubation with saturating unconjugated 4H7 (competitor); parameters: unit not given here
[4] = molecular target: rat FcεRI (high affinity IgE receptor) on RBL-2H3 cells (rat) (UniProt P12371); assay: FACS on RBL-2H3 cells; FITC-conjugated IgE after preincubation with saturating unconjugated BC4 (competitor); conditions: scale: mCi
[5] = molecular target: rat FcεRI (high affinity IgE receptor) on RBL-2H3 cells (rat) (UniProt P12371); assay: FACS on RBL-2H3 cells; FITC-conjugated IgE after preincubation with saturating unconjugated 1A12 (competitor); conditions: scale: mCi
[6] = molecular target: rat FcεRI (high affinity IgE receptor) on RBL-2H3 cells (rat) (UniProt P12371); assay: FACS on RBL-2H3 cells; FITC-conjugated IgE after preincubation with saturating unconjugated 5.14 (competitor); conditions: scale: mCi
[7] = molecular target: rat FcεRI (high affinity IgE receptor) on RBL-2H3 cells (rat) (UniProt P12371); assay: FACS on RBL-2H3 cells; FITC-conjugated IgE after preincubation with saturating unconjugated AA4 (anti-ganglioside Gd1b, competitor); conditions: scale: mCi

## IgE (antibody)
[1]
  Median Fluorescence Intensity: 75
[2]
  Median Fluorescence Intensity: 6.5
[3]
  Median Fluorescence Intensity: 6.4
[4]
  Median Fluorescence Intensity: 5.8
[5]
  Median Fluorescence Intensity: 61
[6]
  Median Fluorescence Intensity: 5.5
[7]
  Median Fluorescence Intensity: 12.3
